From IntAct's records for PubMed 25416956 come the findings set out here.

The labels stand for the following.
B1: Lipopolysaccharide-induced tumor necrosis factor-alpha factor (Homo sapiens), Q99732 (parent)
chain: MSVPGPYQAATGPSSAPSAPPSYEETVAVNSYYPTPPAPMPGPTTGLVTGPDGKGMNPPSYYTQPAPIPNNNPITVQTVYVQHPITFLDRPIQMCCPSCNKMIVSQLSYNAGALTWLSCGSLCLLGCIAGCCFIPFCVDALQDVDHYCPNCRALLGTYKRL
B2: Chorion-specific transcription factor GCMb (Homo sapiens), O75603 (parent)
chain: MPAAAVQEAVGVCSYGMQLSWDINDPQMPQELALFDQFREWPDGYVRFIYSSDEKKAQRHLSGWAMRNTNNHNGHILKKSCLGVVVCTQACTLPDGSRLQLRPAICDKARLKQQKKACPNCHSALELIPCRGHSGYPVTNFWRLDGNAIFFQAKGVHDHPRPESKSETEARRSAIKRQMASFYQPQKKRIRESEAEENQDSSGHFSNIPPLENPEDFDIVTETSFPIPGQPCPSFPKSDVYKATCDLATFQGDKMPPFQKYSSPRIYLPRPPCSYELANPGYTNSSPYPTLYKDSTSIPNDTDWVHLNTLQCNVNSYSSYERSFDFTNKQHGWKPALGKPSLVERTNHGQFQAMATRPYYNPELPCRYLTTPPPGAPALQTVITTTTKVSYQAYQPPAMKYSDSVREVKSLSSCNYAPEDTGMSVYPEPWGPPVTVTRAASPSGPPPMKIAGDCRAIRPTVAIPHEPVSSRTDEAETWDVCLSGLGSAVSYSDRVGPFFTYNNEDF
partner: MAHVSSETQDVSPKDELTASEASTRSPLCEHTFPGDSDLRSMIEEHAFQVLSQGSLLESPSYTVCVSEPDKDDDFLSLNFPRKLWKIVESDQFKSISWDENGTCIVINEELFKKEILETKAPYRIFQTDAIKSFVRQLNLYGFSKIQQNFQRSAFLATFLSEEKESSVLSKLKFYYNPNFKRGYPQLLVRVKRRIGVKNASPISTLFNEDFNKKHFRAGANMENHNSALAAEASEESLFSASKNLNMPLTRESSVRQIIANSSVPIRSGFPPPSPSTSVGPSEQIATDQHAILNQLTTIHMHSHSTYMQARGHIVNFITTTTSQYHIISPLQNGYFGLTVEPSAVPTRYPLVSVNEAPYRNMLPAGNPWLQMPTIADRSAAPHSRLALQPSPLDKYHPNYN

One experiment covers variants of B1. To be noted: with hgs_human HGS.
In the case of A111G, the “effect of a mutation on the interaction” value is given as “disrupting interaction”.

The variants in the next experiment derive from B1. To be noted: with stam2_human STAM2, O75886.
Consider A111G, for which the “effect of a mutation on the interaction” value is reported as “disrupting interaction”.

The variants in the next experiment derive from B1. The following applies: with reep6_human REEP6, Q96HR9.
reep6_human REEP6, Q96HR9, sequence (Q96HR9 whole entry): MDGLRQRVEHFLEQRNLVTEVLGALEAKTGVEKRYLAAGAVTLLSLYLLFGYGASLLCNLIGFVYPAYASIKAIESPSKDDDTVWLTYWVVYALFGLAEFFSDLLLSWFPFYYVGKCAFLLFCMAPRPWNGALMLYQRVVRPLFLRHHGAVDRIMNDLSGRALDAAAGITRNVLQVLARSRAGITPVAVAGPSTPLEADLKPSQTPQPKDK
For A111G, the “effect of a mutation on the interaction” value is “disrupting interaction”.

The variants in another experiment derive from B1. To be noted: with UBQLN1, Q9UMX0-2.
UBQLN1, Q9UMX0-2, sequence (Q9UMX0 other isoform, or with tags, fused parts or gaps): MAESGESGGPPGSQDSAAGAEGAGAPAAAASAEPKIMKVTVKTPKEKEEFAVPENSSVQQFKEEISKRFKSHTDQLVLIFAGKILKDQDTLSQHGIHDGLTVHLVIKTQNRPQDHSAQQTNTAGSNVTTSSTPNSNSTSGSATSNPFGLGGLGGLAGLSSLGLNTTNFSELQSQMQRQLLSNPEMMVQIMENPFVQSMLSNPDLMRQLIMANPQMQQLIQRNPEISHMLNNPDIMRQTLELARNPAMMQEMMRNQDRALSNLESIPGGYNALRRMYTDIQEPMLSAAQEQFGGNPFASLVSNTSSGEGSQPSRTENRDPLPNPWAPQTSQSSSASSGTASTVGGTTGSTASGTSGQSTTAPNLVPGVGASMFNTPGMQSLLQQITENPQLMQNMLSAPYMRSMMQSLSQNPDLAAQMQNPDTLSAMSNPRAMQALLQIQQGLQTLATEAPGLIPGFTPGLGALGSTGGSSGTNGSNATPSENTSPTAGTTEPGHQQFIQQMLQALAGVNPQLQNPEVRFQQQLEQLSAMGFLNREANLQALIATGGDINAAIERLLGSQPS
On to A111G, for which the “effect of a mutation on the interaction” value was “disrupting interaction”.

In a further experiment the parent is B1. The following applies: with ubql1_human UBQLN1, Q9UMX0.
ubql1_human UBQLN1, Q9UMX0, sequence (Q9UMX0 whole entry): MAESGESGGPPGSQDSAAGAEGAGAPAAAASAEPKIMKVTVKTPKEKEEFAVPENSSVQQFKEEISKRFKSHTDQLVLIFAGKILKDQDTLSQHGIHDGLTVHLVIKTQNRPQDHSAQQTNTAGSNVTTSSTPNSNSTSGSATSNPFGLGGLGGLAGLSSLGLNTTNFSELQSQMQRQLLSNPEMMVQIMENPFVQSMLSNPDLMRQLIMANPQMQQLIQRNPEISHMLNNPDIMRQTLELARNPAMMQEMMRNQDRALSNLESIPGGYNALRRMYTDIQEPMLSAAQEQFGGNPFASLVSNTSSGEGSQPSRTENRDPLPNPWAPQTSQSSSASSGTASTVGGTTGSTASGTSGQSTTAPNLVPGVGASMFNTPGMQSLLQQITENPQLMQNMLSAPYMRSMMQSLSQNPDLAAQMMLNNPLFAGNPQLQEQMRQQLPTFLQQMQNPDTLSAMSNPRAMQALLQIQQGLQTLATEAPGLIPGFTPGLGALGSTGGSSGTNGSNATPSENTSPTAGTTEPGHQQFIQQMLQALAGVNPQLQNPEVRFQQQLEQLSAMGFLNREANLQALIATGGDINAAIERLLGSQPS
Consider A111G, for which the “effect of a mutation on the interaction” value was “disrupting interaction”.

The variants in another experiment derive from B2. To be noted: with hsfy1_human HSFY1, Q96LI6.
In the case of R47L, the “effect of a mutation on the interaction” value was “disrupting interaction”.

A further experiment covers variants of B2. The following applies: with hsfy1_human HSFY1, Q96LI6. The source holds these as a separate data set.
Regarding G63S, the “effect of a mutation on the interaction” value is reported as “disrupting interaction”.
